Here are results for 2 molecules from patent US20180118808A1 (CALIFORNIA INSTITUTE FOR BIOMEDICAL RESEARCH, published 2018).

One experiment addresses T1, E4 Chimeric Receptor.
T1 chain: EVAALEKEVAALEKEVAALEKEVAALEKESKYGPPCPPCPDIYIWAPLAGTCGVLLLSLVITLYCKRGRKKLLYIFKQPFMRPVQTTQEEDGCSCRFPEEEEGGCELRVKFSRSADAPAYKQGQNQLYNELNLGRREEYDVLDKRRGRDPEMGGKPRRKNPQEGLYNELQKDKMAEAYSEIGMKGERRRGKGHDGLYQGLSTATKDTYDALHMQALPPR
The experiment can be described thus: cell-based or functional assay.

A further experiment deals with T2, K4 Chimeric Receptor.
T2 chain: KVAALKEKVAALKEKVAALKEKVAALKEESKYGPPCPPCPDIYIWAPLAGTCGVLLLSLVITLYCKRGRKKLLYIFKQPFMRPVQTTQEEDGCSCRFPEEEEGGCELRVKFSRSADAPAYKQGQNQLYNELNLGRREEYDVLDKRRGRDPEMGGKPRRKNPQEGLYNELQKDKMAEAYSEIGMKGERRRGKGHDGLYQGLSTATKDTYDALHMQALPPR
The experiment can be described thus: cell-based or functional assay.

B1: Fmc63 HCCT K4 switch (Fab, V domains shown)
VH: EVKLQESGPGLVAPSQSLSVTCTVSGVSLPDYGVSWIRQPPRKGLEWLGVIWGSETTYYNSALKSRLTIIKDNSKSQVFLKMNSLQTDDTAIYYCAKHYYYGGSYAMDYWGQGTSVTVSS
VL: DIQMTQTTSSLSASLGDRVTISCRASQDISKYLNWYQQKPDGTVKLLIYHTSRLHSGVPSRFSGSGSGTDYSLTISNLEQEDIATYFCQQGNTLPYTFGGGTKLEIKR
Regarding B1, the “EC50 (nM) of switch in cytotoxicity assay (LDH release), E4 CAR-T cells against CD19-positive Raji luc cells” value with E4 Chimeric Receptor is 0.00432 nM.

B2: Fmc63 HCCT E4 switch (Fab, V domains shown)
VH: EVKLQESGPGLVAPSQSLSVTCTVSGVSLPDYGVSWIRQPPRKGLEWLGVIWGSETTYYNSALKSRLTIIKDNSKSQVFLKMNSLQTDDTAIYYCAKHYYYGGSYAMDYWGQGTSVTVSS
VL: DIQMTQTTSSLSASLGDRVTISCRASQDISKYLNWYQQKPDGTVKLLIYHTSRLHSGVPSRFSGSGSGTDYSLTISNLEQEDIATYFCQQGNTLPYTFGGGTKLEIKR
With B2, the “EC50 (nM) of switch in cytotoxicity assay (LDH release), K4 CAR-T cells against CD19-positive Raji luc cells” value with K4 Chimeric Receptor turned out to be 0.0507 nM.
